Experimental data from patent US20190161551A1.

Experiments:
[1] = target: human TrkB extracellular domain (aa Cys32-His430) expressed with the Fc portion of human IgG1 at the C-terminus (human); test: competition ELISA, 500 pM hTrkB-hFc pre-mixed with mAb, plate-coated hNT-4
[2] = target: human TrkB extracellular domain (aa Cys32-His430) expressed with the Fc portion of human IgG1 at the C-terminus (human); test: competition ELISA, 500 pM hTrkB-hFc pre-mixed with mAb, plate-coated hBDNF

Sequence of human TrkB extracellular domain (aa Cys32-His430) expressed with the Fc portion of human IgG1 at the C-terminus (human) (chain, as listed by the source limits assumed): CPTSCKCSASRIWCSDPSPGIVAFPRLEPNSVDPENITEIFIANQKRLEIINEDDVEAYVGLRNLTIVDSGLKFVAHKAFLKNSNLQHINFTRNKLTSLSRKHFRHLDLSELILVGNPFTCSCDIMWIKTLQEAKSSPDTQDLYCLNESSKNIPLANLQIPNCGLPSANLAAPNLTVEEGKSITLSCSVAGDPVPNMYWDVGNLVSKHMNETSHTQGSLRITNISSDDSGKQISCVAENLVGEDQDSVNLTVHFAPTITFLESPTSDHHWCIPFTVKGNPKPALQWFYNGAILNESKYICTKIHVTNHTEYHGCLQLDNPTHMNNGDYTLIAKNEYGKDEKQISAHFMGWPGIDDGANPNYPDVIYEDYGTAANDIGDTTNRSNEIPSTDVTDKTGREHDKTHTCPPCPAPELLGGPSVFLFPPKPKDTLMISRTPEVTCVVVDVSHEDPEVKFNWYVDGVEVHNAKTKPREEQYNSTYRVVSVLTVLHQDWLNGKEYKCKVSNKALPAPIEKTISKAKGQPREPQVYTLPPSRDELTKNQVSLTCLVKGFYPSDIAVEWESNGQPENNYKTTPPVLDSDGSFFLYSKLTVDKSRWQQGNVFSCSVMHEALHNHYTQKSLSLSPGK

% Blockade with 100 nM antibody [1] [%] | % Blockade with 100 nM antibody [2] [%] | Substance
-14 | -19 | mIgG1 negative isotype control (antibody)
-45 | -31 | hIgG4 negative isotype control (antibody)
